Here are results for six molecules from US20260049138A1 (Chugai, published 2026).

B1: CE115HA000 A99S one-arm antibody (antibody, human IgG1, kappa, L234A L235A, N297A, name in Kabat numbering)
heavy: QVQLVESGGGVVQPGRSLRLSCAASGFTFSNAWMHWVRQAPGKGLEWVAQIKAKSNNYATYYAESVKGRFTISRDDSKNSLYLQMNSLKTEDTAVYYCRYVHYGSYYGVDAWGQGTTVTVSSASTKGPSVFPLAPSSKSTSGGTAALGCLVKDYFPEPVTVSWNSGALTSGVHTFPAVLQSSGLYSLSSVVTVPSSSLGTQTYICNVNHKPSNTKVDKKVEPKSCDKTHTCPPCPAPEAAGGPSVFLFPPKPKDTLMISRTPEVTCVVVDVSHEDPEVKFNWYVDGVEVHNAKTKPREEQYASTYRVVSVLTVLHQDWLNGKEYKCKVSNKALPAPIEKTISKAKGQPREPQVYTLPPSRCELTKNQVSLSCAVKGFYPSDIAVEWESNGQPENNYKTTPPVLDSDGSFFLVSKLTVDKSRWQQGNVFSCSVMHEALHNHYTQKSLSLSPDYKDDDDK
chain: EPKSSDKTHTCPPCPAPELLGGPSVFLFPPKPKDTLMISRTPEVTCVVVDVSHEDPEVKFNWYVDGVEVHNAKTKPREEQYNSTYRVVSVLTVLHQDWLNGKEYKCKVSNKALPAPIEKTISKAKGQPREPQVCTLPPSRDELTKNQVSLWCLVKGFYPSDIAVEWESNGQPENNYKTTPPVLDSDGSFFLYSKLTVDKSRWQQGNVFSCSVMHEALHNRYTQKSLSLSP
light: DIVMTQSPLSLPVTPGEPASISCRSSQSLVHSNRNTYLHWYQQKPGQAPRLLIYKVSNRFSGVPDRFSGSGSGTDFTLKISRVEAEDVGVYYCGQGTQVPYTFGQGTKLEIKRTVAAPSVFIFPPSDEQLKSGTASVVCLLNNFYPREAKVQWKVDNALQSGNSQESVTEQDSKDSTYSLSSTLTLSKADYEKHKVYACEVTHQGLSSPVTKSFNRGEC
B2: CE115HA000 A99T one-arm antibody (antibody, human IgG1, kappa, L234A L235A, N297A, name in Kabat numbering)
heavy: QVQLVESGGGVVQPGRSLRLSCAASGFTFSNAWMHWVRQAPGKGLEWVAQIKAKSNNYATYYAESVKGRFTISRDDSKNSLYLQMNSLKTEDTAVYYCRYVHYGTYYGVDAWGQGTTVTVSSASTKGPSVFPLAPSSKSTSGGTAALGCLVKDYFPEPVTVSWNSGALTSGVHTFPAVLQSSGLYSLSSVVTVPSSSLGTQTYICNVNHKPSNTKVDKKVEPKSCDKTHTCPPCPAPEAAGGPSVFLFPPKPKDTLMISRTPEVTCVVVDVSHEDPEVKFNWYVDGVEVHNAKTKPREEQYASTYRVVSVLTVLHQDWLNGKEYKCKVSNKALPAPIEKTISKAKGQPREPQVYTLPPSRCELTKNQVSLSCAVKGFYPSDIAVEWESNGQPENNYKTTPPVLDSDGSFFLVSKLTVDKSRWQQGNVFSCSVMHEALHNHYTQKSLSLSPDYKDDDDK
chain: EPKSSDKTHTCPPCPAPELLGGPSVFLFPPKPKDTLMISRTPEVTCVVVDVSHEDPEVKFNWYVDGVEVHNAKTKPREEQYNSTYRVVSVLTVLHQDWLNGKEYKCKVSNKALPAPIEKTISKAKGQPREPQVCTLPPSRDELTKNQVSLWCLVKGFYPSDIAVEWESNGQPENNYKTTPPVLDSDGSFFLYSKLTVDKSRWQQGNVFSCSVMHEALHNRYTQKSLSLSP
light: DIVMTQSPLSLPVTPGEPASISCRSSQSLVHSNRNTYLHWYQQKPGQAPRLLIYKVSNRFSGVPDRFSGSGSGTDFTLKISRVEAEDVGVYYCGQGTQVPYTFGQGTKLEIKRTVAAPSVFIFPPSDEQLKSGTASVVCLLNNFYPREAKVQWKVDNALQSGNSQESVTEQDSKDSTYSLSSTLTLSKADYEKHKVYACEVTHQGLSSPVTKSFNRGEC
B3: CE115HA000 A102P one-arm antibody (antibody, human IgG1, kappa, L234A L235A, N297A, name in Kabat numbering)
heavy: QVQLVESGGGVVQPGRSLRLSCAASGFTFSNAWMHWVRQAPGKGLEWVAQIKAKSNNYATYYAESVKGRFTISRDDSKNSLYLQMNSLKTEDTAVYYCRYVHYGAYYGVDPWGQGTTVTVSSASTKGPSVFPLAPSSKSTSGGTAALGCLVKDYFPEPVTVSWNSGALTSGVHTFPAVLQSSGLYSLSSVVTVPSSSLGTQTYICNVNHKPSNTKVDKKVEPKSCDKTHTCPPCPAPEAAGGPSVFLFPPKPKDTLMISRTPEVTCVVVDVSHEDPEVKFNWYVDGVEVHNAKTKPREEQYASTYRVVSVLTVLHQDWLNGKEYKCKVSNKALPAPIEKTISKAKGQPREPQVYTLPPSRCELTKNQVSLSCAVKGFYPSDIAVEWESNGQPENNYKTTPPVLDSDGSFFLVSKLTVDKSRWQQGNVFSCSVMHEALHNHYTQKSLSLSPDYKDDDDK
chain: EPKSSDKTHTCPPCPAPELLGGPSVFLFPPKPKDTLMISRTPEVTCVVVDVSHEDPEVKFNWYVDGVEVHNAKTKPREEQYNSTYRVVSVLTVLHQDWLNGKEYKCKVSNKALPAPIEKTISKAKGQPREPQVCTLPPSRDELTKNQVSLWCLVKGFYPSDIAVEWESNGQPENNYKTTPPVLDSDGSFFLYSKLTVDKSRWQQGNVFSCSVMHEALHNRYTQKSLSLSP
light: DIVMTQSPLSLPVTPGEPASISCRSSQSLVHSNRNTYLHWYQQKPGQAPRLLIYKVSNRFSGVPDRFSGSGSGTDFTLKISRVEAEDVGVYYCGQGTQVPYTFGQGTKLEIKRTVAAPSVFIFPPSDEQLKSGTASVVCLLNNFYPREAKVQWKVDNALQSGNSQESVTEQDSKDSTYSLSSTLTLSKADYEKHKVYACEVTHQGLSSPVTKSFNRGEC
B4: CE115HA000 A99Y one-arm antibody (antibody, human IgG1, kappa, L234A L235A, N297A, name in Kabat numbering)
heavy: QVQLVESGGGVVQPGRSLRLSCAASGFTFSNAWMHWVRQAPGKGLEWVAQIKAKSNNYATYYAESVKGRFTISRDDSKNSLYLQMNSLKTEDTAVYYCRYVHYGYYYGVDAWGQGTTVTVSSASTKGPSVFPLAPSSKSTSGGTAALGCLVKDYFPEPVTVSWNSGALTSGVHTFPAVLQSSGLYSLSSVVTVPSSSLGTQTYICNVNHKPSNTKVDKKVEPKSCDKTHTCPPCPAPEAAGGPSVFLFPPKPKDTLMISRTPEVTCVVVDVSHEDPEVKFNWYVDGVEVHNAKTKPREEQYASTYRVVSVLTVLHQDWLNGKEYKCKVSNKALPAPIEKTISKAKGQPREPQVYTLPPSRCELTKNQVSLSCAVKGFYPSDIAVEWESNGQPENNYKTTPPVLDSDGSFFLVSKLTVDKSRWQQGNVFSCSVMHEALHNHYTQKSLSLSPDYKDDDDK
chain: EPKSSDKTHTCPPCPAPELLGGPSVFLFPPKPKDTLMISRTPEVTCVVVDVSHEDPEVKFNWYVDGVEVHNAKTKPREEQYNSTYRVVSVLTVLHQDWLNGKEYKCKVSNKALPAPIEKTISKAKGQPREPQVCTLPPSRDELTKNQVSLWCLVKGFYPSDIAVEWESNGQPENNYKTTPPVLDSDGSFFLYSKLTVDKSRWQQGNVFSCSVMHEALHNRYTQKSLSLSP
light: DIVMTQSPLSLPVTPGEPASISCRSSQSLVHSNRNTYLHWYQQKPGQAPRLLIYKVSNRFSGVPDRFSGSGSGTDFTLKISRVEAEDVGVYYCGQGTQVPYTFGQGTKLEIKRTVAAPSVFIFPPSDEQLKSGTASVVCLLNNFYPREAKVQWKVDNALQSGNSQESVTEQDSKDSTYSLSSTLTLSKADYEKHKVYACEVTHQGLSSPVTKSFNRGEC
B5: CE115HA000 A102I one-arm antibody (antibody, human IgG1, kappa, L234A L235A, N297A, name in Kabat numbering)
heavy: QVQLVESGGGVVQPGRSLRLSCAASGFTFSNAWMHWVRQAPGKGLEWVAQIKAKSNNYATYYAESVKGRFTISRDDSKNSLYLQMNSLKTEDTAVYYCRYVHYGAYYGVDIWGQGTTVTVSSASTKGPSVFPLAPSSKSTSGGTAALGCLVKDYFPEPVTVSWNSGALTSGVHTFPAVLQSSGLYSLSSVVTVPSSSLGTQTYICNVNHKPSNTKVDKKVEPKSCDKTHTCPPCPAPEAAGGPSVFLFPPKPKDTLMISRTPEVTCVVVDVSHEDPEVKFNWYVDGVEVHNAKTKPREEQYASTYRVVSVLTVLHQDWLNGKEYKCKVSNKALPAPIEKTISKAKGQPREPQVYTLPPSRCELTKNQVSLSCAVKGFYPSDIAVEWESNGQPENNYKTTPPVLDSDGSFFLVSKLTVDKSRWQQGNVFSCSVMHEALHNHYTQKSLSLSPDYKDDDDK
chain: EPKSSDKTHTCPPCPAPELLGGPSVFLFPPKPKDTLMISRTPEVTCVVVDVSHEDPEVKFNWYVDGVEVHNAKTKPREEQYNSTYRVVSVLTVLHQDWLNGKEYKCKVSNKALPAPIEKTISKAKGQPREPQVCTLPPSRDELTKNQVSLWCLVKGFYPSDIAVEWESNGQPENNYKTTPPVLDSDGSFFLYSKLTVDKSRWQQGNVFSCSVMHEALHNRYTQKSLSLSP
light: DIVMTQSPLSLPVTPGEPASISCRSSQSLVHSNRNTYLHWYQQKPGQAPRLLIYKVSNRFSGVPDRFSGSGSGTDFTLKISRVEAEDVGVYYCGQGTQVPYTFGQGTKLEIKRTVAAPSVFIFPPSDEQLKSGTASVVCLLNNFYPREAKVQWKVDNALQSGNSQESVTEQDSKDSTYSLSSTLTLSKADYEKHKVYACEVTHQGLSSPVTKSFNRGEC
B6: CE115HA000 A102V one-arm antibody (antibody, human IgG1, kappa, L234A L235A, N297A, name in Kabat numbering)
heavy: QVQLVESGGGVVQPGRSLRLSCAASGFTFSNAWMHWVRQAPGKGLEWVAQIKAKSNNYATYYAESVKGRFTISRDDSKNSLYLQMNSLKTEDTAVYYCRYVHYGAYYGVDVWGQGTTVTVSSASTKGPSVFPLAPSSKSTSGGTAALGCLVKDYFPEPVTVSWNSGALTSGVHTFPAVLQSSGLYSLSSVVTVPSSSLGTQTYICNVNHKPSNTKVDKKVEPKSCDKTHTCPPCPAPEAAGGPSVFLFPPKPKDTLMISRTPEVTCVVVDVSHEDPEVKFNWYVDGVEVHNAKTKPREEQYASTYRVVSVLTVLHQDWLNGKEYKCKVSNKALPAPIEKTISKAKGQPREPQVYTLPPSRCELTKNQVSLSCAVKGFYPSDIAVEWESNGQPENNYKTTPPVLDSDGSFFLVSKLTVDKSRWQQGNVFSCSVMHEALHNHYTQKSLSLSPDYKDDDDK
chain: EPKSSDKTHTCPPCPAPELLGGPSVFLFPPKPKDTLMISRTPEVTCVVVDVSHEDPEVKFNWYVDGVEVHNAKTKPREEQYNSTYRVVSVLTVLHQDWLNGKEYKCKVSNKALPAPIEKTISKAKGQPREPQVCTLPPSRDELTKNQVSLWCLVKGFYPSDIAVEWESNGQPENNYKTTPPVLDSDGSFFLYSKLTVDKSRWQQGNVFSCSVMHEALHNRYTQKSLSLSP
light: DIVMTQSPLSLPVTPGEPASISCRSSQSLVHSNRNTYLHWYQQKPGQAPRLLIYKVSNRFSGVPDRFSGSGSGTDFTLKISRVEAEDVGVYYCGQGTQVPYTFGQGTKLEIKRTVAAPSVFIFPPSDEQLKSGTASVVCLLNNFYPREAKVQWKVDNALQSGNSQESVTEQDSKDSTYSLSSTLTLSKADYEKHKVYACEVTHQGLSSPVTKSFNRGEC

The target of the experiment is T1, CD3ε homodimer protein (human, UniProt P07766 23-126, limits assumed, sulfo-tag or biotin label in the ECL assays; amine-coupled to the chip in SPR).
T1 construct: also called human CD3ε homodimer protein; CD3 (CD3ε)
T1 sequence (P07766 23-126 limits assumed): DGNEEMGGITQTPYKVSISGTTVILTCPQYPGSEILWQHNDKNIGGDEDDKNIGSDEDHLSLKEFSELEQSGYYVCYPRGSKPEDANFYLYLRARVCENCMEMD
Kind of experiment: SPR Biacore T200; CD3ε homodimer on CM4 chip.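 Note: Single-residue variant antibodies injected as analyte over CD3ε homodimer immobilized by amine coupling, run at 25 °C in HBS-EP+ buffer.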
Procedure: An appropriate amount of CD3ε homodimer protein was immobilized onto Sensor chip CM4 (GE Healthcare Japan Corp.) by the amine coupling method. Then, the antibody having an appropriate concentration was injected thereto as an analyte and allowed to interact with the CD3ε homodimer protein on the sensor chip. Then, the sensor chip was regenerated by the injection of 10 mmol/L glycine-HCl (pH 1.5). The assay was conducted at 25° C., and HBS-EP+ (GE Healthcare Japan Corp.) was used as a running buffer. […] Each parameter was calculated using Biacore T200 Evaluation Software (GE Healthcare Japan Corp.).
As to B1, the “ratio of amounts bound Z=Y/X (altered form / CE115HA000)” value is 0.82. Take B2: the “ratio of amounts bound Z=Y/X (altered form / CE115HA000)” value stood at 0.84. In the case of B3, the “ratio of amounts bound Z=Y/X (altered form / CE115HA000)” value is 0.14. B4: the “ratio of amounts bound Z=Y/X (altered form / CE115HA000)” value came out at 1.59. With B5, the “ratio of amounts bound Z=Y/X (altered form / CE115HA000)” value amounted to 1.48. With B6, the “ratio of amounts bound Z=Y/X (altered form / CE115HA000)” value was determined as 1.43.
